Numbering of substitutions follows the chain as printed.
Experiments:
[1] = biological target: T1, BT4663-RRAD C1174A;H1175D (Bacteroides thetaiotaomicron VPI 5482) (UniProt Q89YR8); assay: EMSA; settings: 50 mM Tris pH 7.6, 200 mM NaCl, 2.5% glycerol, 2 mM MgCl2, 0.5 mM DTT, 0.1 ug/uL BSA, 10 ng/uL salmon sperm DNA, ~2.5 ng/uL DNA; 30 min, temperature not …
T1 sequence: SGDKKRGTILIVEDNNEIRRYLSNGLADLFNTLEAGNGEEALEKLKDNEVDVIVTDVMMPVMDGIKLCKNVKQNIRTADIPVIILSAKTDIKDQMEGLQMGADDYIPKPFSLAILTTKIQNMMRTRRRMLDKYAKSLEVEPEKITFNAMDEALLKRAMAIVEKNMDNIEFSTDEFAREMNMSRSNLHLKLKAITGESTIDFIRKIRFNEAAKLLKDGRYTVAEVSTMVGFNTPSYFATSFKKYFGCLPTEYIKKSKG

[2] = biological target: T2, BT4663-RRAG C1174A;H1175G (Bacteroides thetaiotaomicron VPI 5482) (UniProt Q89YR8); assay: EMSA; settings: 50 mM Tris pH 7.6, 200 mM NaCl, 2.5% glycerol, 2 mM MgCl2, 0.5 mM DTT, 0.1 ug/uL BSA, 10 ng/uL salmon sperm DNA, ~2.5 ng/uL DNA; 30 min, temperature not …
T2 sequence: T1 sequence with D79G

Sequence “GATGGTAGTGTGGGGTCTCATGCCTAGGATACAGGAGATAAACAGCTTTTTTAAACAAAAACAACATATGTCTCAACAAATTTGATATCAAAAAAATCATTTTTGAACAAAGTATGAACAACCTAAATTAAAGAATCTAATTAATGAGGTTACATTTGCAACAGTAAAATAACACTTTTAATAATTATAAAACCTAATAAAGTATGAAGAACGAGACCGAAATTCAATAAGGAGG (double strand) [bt4662 promoter fragment]” has a Kd [1] of 900 nM and a Kd [2] of 900 nM.
